Numbering of substitutions follows the chain as printed.
B1: MS501 scFv protein (scFv)
scFv: EVQLLESGGGLVQPGGSLRLSCAASGFTFSNYAMSWVRQAPGKGLEWVSGIYPDSGSTYYADSVKGRFTISRDNSKNTLYLQMNSLRAEDTAVYYCARNIYTFDYWGQGTLVTVSSGGGGSGGGGSGGGGSQSVLTQPPSASGTPGQRVTISCSGSSSNIGSNAVSWYQQLPGTAPKLLIYYNNQRPSGVPDRFSGSKSGTSASLAISGLRSEDEADYYCGSWDSSLSGYVFGGGTKLTVLG
B2: MS503 scFv protein (scFv)
scFv: B1 scFv with G50S, D54G, S55D, R98K, I100A, Y101F, N184S, Q185H, S222T
B3: C2G4 scFv protein (scFv)
scFv: EVQLLESGGGLVQPGGSLRLSCAASGFTFSNYAMSWVRQAPGKGLEWVSGIPPDSGSKYYADSVRGRFTVSRDNSKNTLYLQMNSLRAEDTAVYYCAKNMLSFDYWGQGTLVTVSSGGGGSGGGGSGGGGSQSVLTQPPSASGTPGQRVTISCTGSSSNIGSNAVSWYQQLPGTAPKLLIYYNSKRPSGVPDRFSGSKSGTSASLAISGLRSEDEADYYCGSWDPSLNGYVFGGGTKVTVLG

Molecular target: mesothelin on MIA PaCa2-MSLN cells (mesothelin-overexpressing human pancreatic cancer cell line) (UniProt Q13421)
Sequence of UniProt Q13421 (Q13421 other isoform, or with tags, fused parts or gaps limits assumed): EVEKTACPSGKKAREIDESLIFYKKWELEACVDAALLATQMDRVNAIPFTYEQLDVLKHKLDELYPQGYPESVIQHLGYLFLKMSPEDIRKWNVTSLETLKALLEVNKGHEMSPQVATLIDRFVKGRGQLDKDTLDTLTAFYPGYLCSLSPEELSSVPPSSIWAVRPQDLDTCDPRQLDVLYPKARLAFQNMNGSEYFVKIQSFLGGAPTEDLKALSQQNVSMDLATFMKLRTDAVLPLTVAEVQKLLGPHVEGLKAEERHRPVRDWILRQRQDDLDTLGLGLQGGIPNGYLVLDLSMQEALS
Assay: flow cytometry: 1 µg scFv on 1x10^5 MIA PaCa2-MSLN cells, anti-6X His tag antibody detection

| Binder | percent bound [%] |
| --- | --- |
| B1 | > 68 |
| B2 | > 68 |
| B3 | > 68 |
